Test results from paper PMC4383324.

How the values were obtained:
[1] = target: MyrNCS-1 His6 (N-terminally myristoylated NCS-1 with a carboxyl terminal His6-tag) (UniProt P62166); assay: SEC-MALS
[2] = target: MyrNCS-1 His6 (N-terminally myristoylated NCS-1 with a carboxyl terminal His6-tag) (UniProt P62166); assay: micro-batch multi-angle laser light scattering
[3] = target: MyrNCS-1 His6 (N-terminally myristoylated NCS-1 with a carboxyl terminal His6-tag) (UniProt P62166); assay: AUC

stoichiometry N [1]: 2
Kd [2]: 10 µM
Kd [3]: 2 µM
Substance: MyrNCS-1 His6 (N-terminally myristoylated NCS-1 with a carboxyl terminal His6-tag) (from UniProt P62166 1-190) (natural protein)
